According to US8889392B2, “Monolignol 4-O-methyltransferases and uses thereof” (Brookhaven Science Associates, LLC, priority 2010, dated 2014):
Numbering of substitutions follows the chain as printed. Numbers in names are those of the source. Where “and” joins values, the source holds several entries; their conditions need not be identical. Identical values can stand only once.

T1: horseradish peroxidase (Armoracia rusticana, UniProt P00433)
T1 sequence (P00433 31-338 limits assumed): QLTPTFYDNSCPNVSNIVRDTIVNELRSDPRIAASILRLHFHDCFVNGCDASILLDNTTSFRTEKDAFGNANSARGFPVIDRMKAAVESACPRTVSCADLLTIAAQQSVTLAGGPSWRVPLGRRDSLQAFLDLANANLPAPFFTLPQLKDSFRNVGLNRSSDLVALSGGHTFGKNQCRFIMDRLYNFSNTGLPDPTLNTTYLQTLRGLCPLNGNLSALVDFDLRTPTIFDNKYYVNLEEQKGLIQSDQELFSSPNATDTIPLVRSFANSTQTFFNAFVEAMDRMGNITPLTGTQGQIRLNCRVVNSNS

B1: T133I-E165I-F175I: IEMT triple mutant, monolignol 4-O methyltransferase-3 (protein, listed as Clarkia breweri)
chain: MGSTGNAEIQIIPTHSSDEEANLFAMQLASAAVLPMALKAAIELDVLEIMAKSVPPSGYISPAEIAAQLPTTNPEAPVMLDRVLRLLASYSVVTYTLRELPSGKVERLYGLAPVCKFLTKNEDGVSLAPFLLIATDKVLLEPWFYLKDAILEGGIPFNKAYGMNIFDYHGTDHRINKVFNKGMSSNSTITMKKILEMYNGFEGLTTIVDVGGGTGAVASMIVAKYPSINAINFDLPHVIQDAPAFSGVEHLGGDMFDGVPKGDAIFIKWICHDWSDEHCLKLLKNCYAALPDHGKVIVAEYILPPSPDPSIATKVVIHTDALMLAYNPGGKERTEKEFQALAMASGFRGFKVASCAFNTYVMEFLKTA
B2: T133I-E165I-F175I-F166W-T135N: IEMT penta mutant derived from MOMT3 (protein)
chain: B1 chain with T135N, F166W
B3: IEMT wt: C. breweri (iso)eugenol 4-O-methyltransferase, wild type (GenBank U86760.1, SEQ ID NO: 1) (protein, listed as Clarkia breweri)
chain: B1 chain with I133T, I165E, I175F
B4: T133L/L139Q/E165F: IEMT triple mutant variant (protein, listed as Clarkia breweri)
chain: B1 chain with I133L, L139Q, I165F, I175F

Assays:
Assay type in all cases: biochemical
horseradish peroxidase = molecular target: T1, horseradish peroxidase; experiment: Peroxidase-catalyzed dehydrogenative polymerization in vitro; conditions: incubation with horseradish peroxidase and H2O2
Source text: In vitro dehydrogenative polymerization is commonly used as a biomimetic model to explore in vivo lignin formation. Using the novel mutant variants, we produced methylated monolignol—the 4-O-methoxy-coniferyl alcohol, and subjected it to peroxidase-catalyzed dehydrogenative polymerization, compared to the classic p-coniferyl alcohol. […] The oligomer products include a predominant dimer, the β-5 inter subunit linkage, G(8-5)G, and a few minor peaks of the G(8-O-4)G and G(8-8)G dimers.

[1] = Kinetic parameters for 4-O-methylation of sinapyl alcohol; conditions: for Km / Vmax: substrate sinapyl alcohol, 4-O-methylation
[2] = Kinetic parameters for 4-O-methylation of coniferyl alcohol; conditions: for Km / Vmax: substrate coniferyl alcohol, 4-O-methylation
Experimental: E. coli transformants were inoculated in 96 well plates. Protein production was induced with 0.2 mM isopropyl β-D-1-thiogalactopyranoside, and the harvested cell cultures were lysed with 60 μl of BugBuster solution per well (Novagen). Enzymatic activity was screened using the lysates directly or after purification of the recombinant protein in a 96 well purification plate.
Screening was performed in a polypropylene microplate (Bio-Rad) containing 50 μl of the reaction in each well, 500 μM p-coniferyl-alcohol substrates, and 500 μM S-adenosyl-L-methionine augmented with (isotopic assay) or without (LC-MS assay) 0.005 μCi of [methyl-^14C]S-adenosyl-L-methionine, and 20 μl of lysates or purified protein (Ni^+ column eluate). (see Bhuiya, M. W. and Liu, C. J. (2010) J. Biol. Chem. 285:277-285 and its supplemental material).
To further optimize the catalytic efficiency of MOMT on the desired para-methylation of monolignols, based on the crystal structure of MOMT3, we identified additional amino acid residues that either directly contact or are proximate to the bound coniferyl alcohol, particularly the residues near the 3-methoxy-buried pocket. They are F130, A134, V138, L139, F157, Y161, N164, F166, Y168, H169, H173, F179, M183, N186, T319, L322, M323, A325, Y326, and N327. We then carried out the next round saturation mutagenesis on the recognized amino acid sites using MOMT3 as the parental template. […] The MOMT4 enzyme predominantly reacted with coniferyl and sinapyl alcohols, with preference for the latter, while the MOMT5 favors for coniferyl alcohol.

[3] = Substrate specificity of mutant variants; conditions: p-hydroxycinnamyl alcohols and p-hydroxycinnamaldehydes
Source text: Kinetically, the mutant T133L/E165I/F175I equally preferred two major types of monolignols in angiosperms, i.e., coniferyl and sinapyl alcohols, whereas the T133L/L139Q/E165F variant favored coniferyl slightly over the sinapyl alcohol.

Molecule	conversion and oligomerization (horseradish peroxidase)	catalytic efficiency ([1]; sinapyl alcohol) [M⁻¹ s⁻¹]	fold increase of catalytic efficiency compared with the wild-type enzyme ([1]; sinapyl alcohol)	Km [1]	Vmax [1]	catalytic efficiency ([2]; coniferyl alcohol) [M⁻¹ s⁻¹]	fold increase of catalytic efficiency compared with the wild-type enzyme ([2]; coniferyl alcohol)	Km [2]	Vmax [2]	activity for lignin monomeric precursors [3]
COc1cc(/C=C/CO)ccc1O [coniferyl alcohol, p-coniferyl alcohol]	oxidized and conjugated, yielding several oligolignols									
B1		1463	more than 70 fold	120 µM and 119 µM	275 ± 10 nmol/mg/min and 260 ± 6 nmol/mg/min	1245	more than 70 fold	279 µM and 199 µM	556 ± 35 nmol/mg/min and 371 ± 15 nmol/mg/min	high activities
B2				54 ± 14 µM	115 ± 9 nmol/mg/min			167 ± 11 µM	431 ± 12 nmol/mg/min	
B3				1500 ± 214 µM	45 ± 4 nmol/mg/min			1590 ± 182 µM	42 ± 4 nmol/mg/min	barely measurable
B4										high activities
